According to publication PMC3897377, “Utilizing Nanobody Technology to Target Non-Immunodominant Domains of VAR2CSA” (PLoS ONE, 2014):

Tests used:
[1] = biological target: T1, DBL1-ID2a protein of VAR2CSA (containing minimal CSA-binding region), baculovirus-produced (Plasmodium falciparum FCR3 (assumed for …, UniProt Q6UDW7, strain)); test: far-Western, overlay or dot blot; Western blot: recombinant VAR2CSA domain (0,4 µg/lane) run NON-REDUCED on SDS gel, blotted to nitrocellulose, probed with 50 nM Nb in TBST; rabbit anti-camel and HRP anti-rabbit; details: both partners purified
T1 construct: DBL1-ID2a; source: baculovirus-produced

[2] = biological target: T2, VAR2CSA DBL3 domain, baculovirus-produced (Plasmodium falciparum FCR3 (implied), UniProt Q6UDW7, strain); test: ELISA; recombinant VAR2CSA protein or domain (50 nM in PBS) coated on MaxiSorp plates overnight at 4°C; Nb 50 nM in 1% skim milk in PBS, 90 min RT; detected with rabbit anti-camel and HRP anti-rabbit, OD 490 nm after 20 min; details: both partners purified
T2 construct: DBL3 domain; also called DBL3X; source: baculovirus expression system, as described in [11], [20]

[3] = biological target: T3, VAR2CSA DBL6 domain, baculovirus-produced (Plasmodium falciparum FCR3, UniProt Q6UDW7, strain); test: as above; details: both partners purified
T3 construct: DBL6 domain; also called DBL6ε; source: baculovirus expression system, as described in [11], [20]

[4] = biological target: T4, ID1–ID2a minimal CSA-binding region of VAR2CSA, produced in E. coli (Plasmodium falciparum FCR3, UniProt Q6UDW7, strain); test: as above; details: both partners purified
T4 construct: ID1–ID2a region; also called ID1–ID2a (coli); source: E. coli

[5] = biological target: T5, ID1–ID2a minimal CSA-binding region of VAR2CSA, produced in Schneider 2 (S2) cells (Plasmodium falciparum FCR3, UniProt Q6UDW7, strain); test: as above; details: both partners purified
T5 construct: ID1–ID2a region; also called ID1–ID2a (S2); source: Schneider 2 (S2) cells

[6] = biological target: T6, DBL1-ID2a of VAR2CSA of the heterologous 3D7 parasite line (Plasmodium falciparum 3D7, UniProt Q8I639, strain); test: as above; details: both partners purified
T6 construct: VAR2CSA, P. falciparum strain 3D7; also called 3D7 DBL1-ID2a; source: baculovirus expression system

[7] = biological target: T7, ID1–ID2a of VAR2CSA of the heterologous 3D7 parasite line (Plasmodium falciparum 3D7, UniProt Q8I639, strain); test: as above; details: both partners purified
T7 construct: VAR2CSA, P. falciparum strain 3D7; also called 3D7 ID1–ID2a; source: baculovirus expression system

[8] = biological target: T8, full-length VAR2CSA (FV2) recombinant protein, FCR3 (Plasmodium falciparum FCR3, UniProt Q6UDW7, strain); test: as above; details: both partners purified
T8 construct: VAR2CSA (PfEMP1 family), Plasmodium falciparum strain FCR3, full-length recombinant protein; also called FV2-FCR3; source: recombinant, purified, expressed as described in [33]

[9] = biological target: T9, ID1–ID2a minimal CSA-binding region of VAR2CSA, baculovirus-produced (Plasmodium falciparum FCR3, UniProt Q6UDW7, strain); test: as above; details: both partners purified
T9 construct: VAR2CSA, P. falciparum FCR3; ID1–ID2a region encompassing DBL2X with the flanking parts ID1 and ID2; also called ID1–ID2a (BV); source: baculovirus expression system, as described in [11], [20]

[10] = biological target: T10, native VAR2CSA on the surface of NF54 infected erythrocytes (Plasmodium falciparum NF54 (VAR2CSA …, UniProt Q8I639, strain)); test: flow cytometry on cells; late stage VAR2CSA-expressing IE (FCR3, 7201, NF54) incubated with Nb (0,1 mg/ml), 30 min at 4°C; detected with mouse anti-penta-His and FITC anti-mouse; specific recognition defined by an MFI ratio >1.2; details: one partner purified
T10 construct: VAR2CSA of the P. falciparum parasite line NF54, native protein on infected erythrocytes; also called VAR2CSA-expressing IE (NF54); source: endogenous, on P. falciparum NF54-infected erythrocytes

[11] = biological target: T3, VAR2CSA DBL6 domain, …; test: ELISA; recombinant VAR2CSA protein or domain (50 nM in PBS) coated on MaxiSorp plates overnight at 4°C; Nb 50 nM in 1% skim milk in PBS, 90 min RT; detected with rabbit anti-camel and HRP anti-rabbit, OD 490 nm after 20 min; details: both partners purified; remark: listed apart in the source

Binder | binding result [1] | binding result [2] | binding result [3] | binding result [4] | binding result [5] | binding result [6] | binding result [7] | binding result [8] | binding result [9] | binding result [10] | binding result [11]
Nb09 (VHH, from an alpaca immunized with full-length VAR2CSA; pHEN6c vector; also called Nanobody 09; VHH; source: E. coli WK6, periplasmic extract, purified (HisTrap); not shown: His6, C-terminal, kept) VHH: QVQLQESGGGLVQAGGSLRLSCAASGRTFSNYGMGWFRQTPEKERDLLAAVTWSGGRTYYADSVKGRFTISRDNAKNTVYLQMNSLKPEDTAVYYCAAGELFYSDYGPEGEWDYWGQGTQVTVSS | binds | no binding (tested: 50 nM) | no binding (tested: 50 nM) | binds | binds | binds | binds | binds | binds | binds | –
Nb04 (VHH, from an alpaca immunized with full-length VAR2CSA; pHEN6c vector; also called Nanobody 04; VHH; source: E. coli WK6, periplasmic extract, purified (HisTrap); not shown: His6, C-terminal, kept) VHH: QVQLQESGGGLAQPGGSLRLSCTASGRIYRMAWFRQAPGKERELVASITHIGATNYADSVKGRFTISRDNFKNTMYLQMNDLKPEDTAVYYCNAASSWGKGTQVTVSS | – | no binding (tested: 50 nM) | – | – | – | – | – | binds | – | binds | binds
